Laboratory results as given in US20140065163A1 (MERCK SERONO S A, published 2014).
Where two headings read alike, the source gives them in different places.

T1: macaca GM-CSF (Macaca mulatta (identical in Macaca …, UniProt Q0MUT8 18-144 (Chlorocebus aethiops entry), limits assumed))
T1 chain: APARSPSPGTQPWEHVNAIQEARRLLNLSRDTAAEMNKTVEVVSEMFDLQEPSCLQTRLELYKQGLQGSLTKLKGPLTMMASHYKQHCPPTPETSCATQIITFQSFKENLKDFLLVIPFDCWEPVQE


Assays:
macaca GM-CSF [1] = target: T1, macaca GM-CSF; assay: cell-based or functional assay
human GM-CSF I117 [2] = target: T2, human GM-CSF I117 (human, UniProt P04141 18-144); assay: cell-based or functional assay
human GM-CSF T117 [3] = target: T3, human GM-CSF T117 (human, UniProt P04141 18-144); assay: cell-based or functional assay
macaca GM-CSF [4] = target: T1, macaca GM-CSF; assay: cell-based or functional assay
human GM-CSF I117 [5] = target: T2, human GM-CSF I117; assay: cell-based or functional assay; remark: listed apart in the source
Target sequence in this assay (P04141 18-144 limits assumed): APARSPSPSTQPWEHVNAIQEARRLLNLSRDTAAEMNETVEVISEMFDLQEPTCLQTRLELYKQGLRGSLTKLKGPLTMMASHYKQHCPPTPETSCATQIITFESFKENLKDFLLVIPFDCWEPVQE

human GM-CSF T117 [6] = target: T3, human GM-CSF T117; assay: cell-based or functional assay; remark: listed apart in the source
Target sequence in this assay (P04141 18-144 I117T limits assumed): as the sequence (P04141 18-144 limits assumed) above, with I100T counted along it

macaca GM-CSF [7] = target: T1, macaca GM-CSF; assay: cell-based or functional assay
human GM-CSF I117 [8] = target: T2, human GM-CSF I117; assay: cell-based or functional assay; remark: listed apart in the source
human GM-CSF T117 [9] = target: T3, human GM-CSF T117; assay: cell-based or functional assay; remark: listed apart in the source
macaca GM-CSF [10] = target: T1, macaca GM-CSF; assay: cell-based or functional assay
human GM-CSF I117 [11] = target: T2, human GM-CSF I117; assay: cell-based or functional assay; remark: listed apart in the source
human GM-CSF T117 [12] = target: T3, human GM-CSF T117; assay: cell-based or functional assay; remark: listed apart in the source
human GM-CSF I117 [13] = target: T2, human GM-CSF I117; assay: KinExA, affinity in solution
Method: (§1) The 4K21 and reference antibodies were incubated at concentration below the expected Kd with serial dilutions of human GM-CSF I117 or T117, or macaca GM-CSF up to equilibrium. The remaining free antibody was measured in a Kinetic exclusion assay with the KinExA® instrument. Kd was calculated by fitting the curve of the signal obtained versus the GM-CSF concentrations. The average of two experiments using different IgG concentrations was calculated.

human GM-CSF T117 [14] = target: T3, human GM-CSF T117; assay: KinExA, affinity in solution
Method: as §1

macaca GM-CSF [15] = target: T1, macaca GM-CSF; assay: KinExA, affinity in solution
Method: as §1

human GM-CSF I117 [16] = target: T2, human GM-CSF I117; assay: TF-1 proliferation assay and KinExA
human GM-CSF A117 mutant = target: T4, human GM-CSF A117 mutant (human, UniProt P04141 18-144); assay: competition ELISA: antibody on coated wild-type human GM-CSF, competitor soluble human GM-CSF A117; single condition, competitor concentration not shown
T4 construct: also called hGM-CSF A117; A117 protein

Fold improvement of 4K21 H93Y alone on I117 (IC50, TF-1 proliferation) (human GM-CSF I117 [5]) [fold] | Fold improvement of humanized parental 4K21 on I117 (IC50, TF-1 proliferation) (human GM-CSF I117 [5]) [fold] | IC50, inhibition of GM-CSF induced TF-1 proliferation (32 pM GM-CSF) (human GM-CSF I117 [5]) [pM] | Fold human T117/I117 (IC50, TF-1 proliferation) (human GM-CSF T117 [6]) [fold] | Fold improvement of 4K21 H93Y alone on T117 (IC50, TF-1 proliferation) (human GM-CSF T117 [6]) [fold] | Fold improvement of humanized parental 4K21 on T117 (IC50, TF-1 proliferation) (human GM-CSF T117 [6]) [fold] | IC50, inhibition of GM-CSF induced TF-1 proliferation (32 pM GM-CSF) (human GM-CSF T117 [6]) [pM] | Fold improvement of 4K21 H93Y alone on macaca (IC50, TF-1 proliferation) (macaca GM-CSF [7]) [fold] | Fold improvement of humanized parental 4K21 on macaca (IC50, TF-1 proliferation) (macaca GM-CSF [7]) [fold] | Fold macaca/human I117 (IC50, TF-1 proliferation) (macaca GM-CSF [7]) [fold] | IC50, inhibition of GM-CSF induced TF-1 proliferation (32 pM GM-CSF) (macaca GM-CSF [7]) [pM] | IC50, inhibition of GM-CSF induced IL-8 secretion in U937 cells (65 pM GM-CSF) (human GM-CSF I117 [8]) [pM] | IC50, inhibition of GM-CSF induced IL-8 secretion in U937 cells (65 pM GM-CSF) (human GM-CSF T117 [9]) [pM] | IC50, inhibition of GM-CSF induced IL-8 secretion in U937 cells (65 pM GM-CSF) (macaca GM-CSF [10]) [pM] | Emax (%), inhibition of CD11b upregulation on neutrophils after GM-CSF stimulation (human GM-CSF I117 [11]) [%] | IC50, inhibition of CD11b upregulation on neutrophils after GM-CSF stimulation (human GM-CSF I117 [11]) [pM] | Emax (%), inhibition of CD11b upregulation on neutrophils after GM-CSF stimulation (human GM-CSF T117 [12]) [%] | IC50, inhibition of CD11b upregulation on neutrophils after GM-CSF stimulation (human GM-CSF T117 [12]) [pM] | Kd (human GM-CSF I117 [13]) [pM] | Kd (human GM-CSF T117 [14]) [pM] | Binder | also measured
0.2 | 1 | 121 | 11.6 | 0.1 | 1 | 1400 | 0.1 | 1 | 6.6 | 793 | 170 | 930 | 1120 | 65 | 3060 | 68 | 31600 | 21 | 164 | humanized parental anti-GM-CSF 4K21 VH3-07.1AL+VK2-A3.2 hIgG1K antibody (MSB0010439) (antibody, V domains shown, Human IgG1 kappa; also called humanized parental 4K21 hVH hVL; parental 4K21) VH: EVQLVESGGGLVQPGGSLRLSCAASGFAFSAYDMSWVRQAPGKRLELVAYISSGGSSFYYPDTVKGRFTISRDNAKNSLYLQMNSLRAEDTAVYYCTRHLGFDYWGQGTLVTVSS VL: DIVMTQSPLSLPVTPGEPASISCRSSQSLVNSNGNTYLHWYLQKPGQSPQLLIYKVSNRFSGVPDRFSGSGSGTDFTLKISRVEAEDVGVYYCSQSTHVPPTFGQGTKVEIK | neutralizing the orthologs of cynomolgus and rhesus monkeys (TF-1 proliferation assay) (macaca GM-CSF [1]): < 10 fold; IC50, inhibition of GM-CSF induced TF-1 proliferation (32 pM GM-CSF) (human GM-CSF I117 [2]): 98 pM; Fold human T117/I117 (IC50, TF-1 proliferation) (human GM-CSF T117 [3]): 9.7 fold; IC50, inhibition of GM-CSF induced TF-1 proliferation (32 pM GM-CSF) (human GM-CSF T117 [3]): 947 pM; Fold macaca/human I117 (IC50, TF-1 proliferation) (macaca GM-CSF [4]): 5.7 fold; IC50, inhibition of GM-CSF induced TF-1 proliferation (32 pM GM-CSF) (macaca GM-CSF [4]): 557 pM; Kd (macaca GM-CSF [15]): 63 pM; fold preference for GM-CSF I117 versus T117 (human GM-CSF I117 [16]): > 10 fold
1.3 | 5.3 | 23 | 0.9 | 8.3 | 68 | 21 | 1.8 | 15 | 2.3 | 53 | 334 | 263 | 340 | 79 | 1410 | 97 | 2030 | 6 | 5 | MSB0010601 4K21 (4K21 hVH S55K-T62S hVL N28I-H34S-N53R-H93Y) (antibody, V domains shown, IgG; also called optimized 4K21 antibody) VH: EVQLVESGGGLVQPGGSLRLSCAASGFAFSAYDMSWVRQAPGKRLELVAYISSGGKSFYYPDSVKGRFTISRDNAKNSLYLQMNSLRAEDTAVYYCTRHLGFDYWGQGTLVTVSS VL: DIVMTQSPLSLPVTPGEPASISCRSSQSLVNSIGNTYLSWYLQKPGQSPQLLIYKVSRRFSGVPDRFSGSGSGTDFTLKISRVEAEDVGVYYCSQSTYVPPTFGQGTKVEIK | Kd (macaca GM-CSF [15]): 12 pM; binding result (human GM-CSF A117 mutant): binds
